Data: the supplement of paper PMC10126150
± gives the standard deviation of the averaged measurements.

These sequences were tested on ATP (assay: switch fluorescence ratio, 500 uM ATP over buffer (Cy3 cluster intensity, sum of 5 cycles each) (fold (ratio)); higher = stronger signal-on switching upon ATP binding; sequences stand for … in TCGTCGGCAGCGTCAGATGTGTATAAGAGACAGTTTTTTTTTTTTTTTTTTTTTTTTT…TC). Conditions: aptamer strand: ATP DNA aptamer (quencher-CACCTGGGGGAGTATTGCGGAGGAAGG + anchor), 100 nM annealed; ATP concentration: 500 uM.
Procedure, shortened: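 Cy3-labelled switching-strand clusters on a modified Illumina MiSeq flow-cell were annealed to 100 nM quencher-labelled ATP aptamer and imaged first in selection buffer, then after 15 min with 500 uM ATP at 22 °C. NaOH stripping and re-annealing separated each of five buffer/ATP cycles, and clusters outside 100-1000 RFU were excluded. The fluorescence ratio sums target-cycle Cy3 intensity over buffer-cycle Cy3 intensity per cluster and averages it per switch-domain sequence.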
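Note: ATP exposure 15 min at 22 °C before imaging.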

| Sequence | switch fluorescence ratio |
| --- | --- |
| CAGGGCTGGT | 0.976 ± 0.015 |
| AAGGGAATGA | 0.987 ± 0.016 |
| TTTTCTGTTC | 0.988 ± 0.044 |
| GTTGGGAAGT | 0.994 ± 0.038 |
| TTTGAGACAG | 0.994 ± 0.026 |
| GTAGAAAAAG | 1.99 ± 1.4 |
| GTGTTGTACG | 0.999 ± 0.015 |
| TTTGTTGCTC | 1 ± 0.03 |
| GGGGTTTTTA | 0.995 ± 0.034 |
| TTACACATCA | 1.083 ± 0.0047 |
| ATAGTCCTGG | 0.963 ± 0.019 |
| TTACATTT | 1.02 ± 0.017 |
| TTTAAAAGAT | 1.01 ± 0.035 |
| TGTTTATTTA | 0.983 ± 0.0018 |
| GCAATAATCG | 1.98 ± 1.4 |
| TATAAAACGG | 1.14 ± 0.045 |
| GTTGACAAAT | 1.036 ± 0.01 |
| TTGTTAGTAT | 0.996 ± 0.021 |
| TGAAGGTAAC | 0.98 ± 0.012 |
| AAAGAAAGGA | 0.977 ± 0.032 |
| GGTTTGAAAA | 1.01 ± 0.032 |
| TTTTGTATTC | 1.05 ± 0.12 |
| TTTTGTTCCC | 1 ± 0.034 |

| Sequence | switch fluorescence ratio |
| --- | --- |
| GGGCGGGATT | 1 ± 0.059 |
| TCATCCCGGG | 1.052 ± 0.0077 |
| GGGAATGTTC | 1.01 ± 0.014 |
| TGTTGTGGGG | 0.96 ± 0.025 |
| ACCGGTTTTT | 1.04 ± 0.045 |
| GCATTTTATA | 1.02 ± 0.012 |
| TTTATACAA | 1.018 ± 0.0097 |
| CGGGGGTAGA | 0.966 ± 0.042 |
| AGATAAACTC | 1.03 ± 0.051 |
| CAGACTTCGG | 0.934 ± 0.016 |
| TATCCTTTGA | 1.002 ± 0.0014 |
| ACTGTGTTTG | 0.991 ± 0.036 |
| CTTAGAATGA | 0.979 ± 0.025 |
| CGTGAGTGGT | 1.018 ± 0.0037 |
| CGCGAGGGGC | 1.07 ± 0.012 |
| CATGTTGGTA | 0.9946 ± 0.0076 |
| TTTCTCGTTC | 1.15 ± 0.21 |
| CGCGAAAGCC | 1.002 ± 0.01 |
| AGGGTAGCGG | 0.955 ± 0.012 |
| GCGATTAAAT | 1.018 ± 0.0019 |
| ACCGGTCTAT | 1.031 ± 0.00046 |
| CATTGCAAAC | 5.13 ± 0.53 |
| TCTGTAGGTG | 1.07 ± 0.046 |

| Sequence | switch fluorescence ratio |
| --- | --- |
| TAGTAGAGTT | 1 ± 0.013 |
| TTGAGGGACT | 1.01 ± 0.018 |
| CGGATAGAAT | 0.984 ± 0.029 |
| AGAGGGCTTT | 0.988 ± 0.032 |
| TCTGGGGTTT | 1.03 ± 0.051 |
| TGGTGTTTT | 0.998 ± 0.024 |
| GTTTATGTAG | 1.01 ± 0.0096 |
| CATGGAGGGG | 0.9617 ± 0.0061 |
| CAGCGGTAGG | 1.03 ± 0.016 |
| GGTTGATAGA | 1.01 ± 0.028 |
| GGTAATTTTC | 1.11 ± 0.18 |
| GGTTTGGGAG | 1 ± 0.036 |
| ATTGGGAGGA | 1 ± 0.014 |
| GACGGCGTCG | 0.974 ± 0.011 |
| AGCTATTCCG | 1.01 ± 0.013 |
| AACAATTGGG | 0.978 ± 0.0039 |
| GGTGGGGCGA | 1.01 ± 0.041 |
| ATTTATTTTT | 1.011 ± 0.002 |
| CAGTTAGACA | 0.99 ± 0.081 |
| GAGTTCGGGA | 1.02 ± 0.029 |
| TAGAGGCGAA | 1 ± 0.011 |
| AAGTGGAGTC | 1.05 ± 0.085 |
| CGTCGAGTGC | 0.962 ± 0.011 |

| Sequence | switch fluorescence ratio |
| --- | --- |
| TGATGCTTCA | 1 ± 0.037 |
| TTATATGGGG | 1 ± 0.018 |
| TGGGAGCGGT | 0.995 ± 0.007 |
| TTGGGGGCTC | 0.998 ± 0.024 |
| AATGATTGGA | 1.02 ± 0.041 |
| TGTTACCAGC | 1.01 ± 0.014 |
| GCGGTTAGAA | 1.02 ± 0.026 |
| TTCATCCGGT | 1.52 ± 0.091 |
| TATTTAATTT | 0.997 ± 0.026 |
| ATAAGATATG | 0.999 ± 0.012 |
| CAATAGAGGG | 0.991 ± 0.033 |
| TGAGGTGGTG | 1.01 ± 0.0074 |
| GTAGTCTTAG | 0.9943 ± 0.0097 |
| TTGGGCAGTG | 1.02 ± 0.045 |
| GGGTAGCTAT | 0.9739 ± 0.0049 |
| TCGTCAGCTG | 1.02 ± 0.061 |
| ATTGCGTGTA | 1.023 ± 0.0085 |
| AGTTAATGTT | 1.01 ± 0.0026 |
| GGCGGGTGCG | 0.984 ± 0.028 |
| CCTAATAGGG | 0.9929 ± 0.0033 |
| TTACAAGTTA | 1.05 ± 0.064 |
| AGGCTTGTGC | 1.01 ± 0.081 |
| AGACGTGCAG | 1.022 ± 0.006 |

| Sequence | switch fluorescence ratio |
| --- | --- |
| GAAATCGGGG | 1.05 ± 0.15 |
| CGGGATAATG | 0.994 ± 0.021 |
| AAGAAATCGG | 1.01 ± 0.018 |
| AACAAGCCCA | 1.008 ± 0.0066 |
| AGTCAGGGTC | 0.99 ± 0.032 |
| ATGCGACGGC | 1.05 ± 0.028 |
| AAACGGGTCA | 0.983 ± 0.03 |
| TGAAAATTTT | 0.99 ± 0.029 |
| TGATAGGGGA | 1.01 ± 0.047 |
| GGGAGTCAGC | 1.012 ± 0.008 |
| ACCTGGATAC | 1.86 ± 0.019 |
| TGAATGACGG | 0.993 ± 0.026 |
| TGGGGCCCTT | 1.04 ± 0.02 |
| TGAAATATTT | 1.21 ± 0.21 |
| CCTTGGGGTG | 1.06 ± 0.14 |
| TTTCATTATT | 1.02 ± 0.02 |
| GTGTCCGTGG | 1.003 ± 0.0037 |
| TATTTGGCTT | 1 ± 0.025 |
| TACCGGGTTT | 0.9914 ± 0.0059 |
| ATAAGCCTGG | 1.01 ± 0.041 |
| GGGTATGTGA | 0.961 ± 0.037 |
| TGTTATAGTT | 1.01 ± 0.055 |
| ATTGGATATT | 1.02 ± 0.015 |

| Sequence | switch fluorescence ratio |
| --- | --- |
| GTTGCTTTTT | 0.998 ± 0.035 |
| CATCTAAGGC | 1.07 ± 0.049 |
| CCATGGGGGA | 1.01 ± 0.0019 |
| AAGAGGGGGC | 0.986 ± 0.045 |
| AGGCAAGGGG | 1.04 ± 0.069 |
| ATTGTATTG | 0.986 ± 0.014 |
| TGCTGGCGGC | 0.982 ± 0.03 |
| TGTGTTGGTT | 0.9939 ± 0.0073 |
| TTGGTGTTTT | 1.02 ± 0.03 |
| AGGAGTCGTT | 1.02 ± 0.044 |
| AGAAATGGGA | 0.987 ± 0.012 |
| CGTATATGTG | 0.989 ± 0.035 |
| TTTTAACTCG | 1.01 ± 0.023 |
| GGAGGGAGCG | 1 ± 0.03 |
| AATATTCATT | 0.985 ± 0.069 |
| AGTTTTTACC | 1.01 ± 0.046 |
| TGAAAGGGTA | 0.999 ± 0.022 |
| TTTTTAATAT | 1.04 ± 0.062 |
| TGTTTTACTG | 0.996 ± 0.015 |
| CACGTACGGG | 1.59 ± 0.089 |
| TAGCGAGCGC | 0.988 ± 0.068 |
| TTTTGGGGTG | 1.05 ± 0.12 |
| AATTTCTGGG | 1.06 ± 0.058 |

| Sequence | switch fluorescence ratio |
| --- | --- |
| TCTGGCCGCG | 1.015 ± 0.0075 |
| GATGCTTATG | 1.01 ± 0.04 |
| TTTATGAGGT | 0.999 ± 0.02 |
| AGCAAATATA | 1.058 ± 0.0057 |
| GGATAGGGTA | 0.974 ± 0.043 |
| AAATTTAATC | 1.02 ± 0.034 |
| TGAAGCCTAC | 2.57 ± 0.28 |
| TTATAATGTG | 1.009 ± 0.01 |
| TGCGTAGGAA | 1.061 ± 0.0049 |
| CACGGACTGC | 1.42 ± 0.07 |
| CGGGAGCTTT | 1.07 ± 0.012 |
| TGGGCGGGAT | 1 ± 0.039 |
| TCTGAAAATG | 0.998 ± 0.012 |
| GTATCTTACT | 1.007 ± 0.0018 |
| CAGAGTAGGG | 0.969 ± 0.049 |
| GGATTTTGTG | 0.994 ± 0.021 |
| TGTTCTGGGG | 1.01 ± 0.019 |
| TTTATACCAG | 1.004 ± 0.0066 |
| GCTATTAGTG | 0.9892 ± 0.0051 |
